# Results as given in patent US20260159561A1 (MyNeuroCure Oy, priority 2017, published 2026).
# B1: C-CDNF: Human C-CDNF, SEQ ID NO: 4: C-terminal domain of mature CDNF, amino acid 101 to 161; recombinant, Histidine tag at C-terminus (protein, listed as Homo sapiens)
# chain: KYEKTLDLASVDLRKMRVAELKQILHSWGEECRACAEKTDYVNLIQELAPKYAATHPKTEL
# Tests used:
# [1] = system: SOD1-G93A mice; assay: SOD1-G93A mouse ALS model, 4-week chronic intracerebroventricular infusion; format: in vivo; settings: i.c.v. infusion 1.5 μg/24 h for 4 weeks, vs PBS
# Text: (§1) Transgenic SOD1 G93A mice served as a transgenic mouse model for ALS in this study. Transgenic mice containing various human SOD1 mutations develop progressive neurodegeneration and motoneuron (MN) death, providing an animal model that has been commonly used for preclinical trials and that has greatly contributed to the understanding of FALS pathogenesis (Gurney et al., 1994). […] In these mice hind limb weakness and tremulous movement appear as initial symptoms at 8-10 week of age, followed by major symptoms such as progressive motor paralysis and neurogenic amyotrophy (Shibata 2001). […] Transgenic expression was analyzed by DNA tail tests and PCR, using specific oligonucleotides and conditions as done previously by others (see homepage Jackson Lab). […]
# In the chronic infusion experiment, 12-week-old SOD1 mice were inserted a brain infusion cannula (connected via catheter-tubing to an Alzet osmotic minipump) to the right lateral ventricle under isoflurane anesthesia. […] Motor behavior was evaluated with rotarod. Mice were evaluated for clinical signs and body weight changes.
# (§2) Clinical scoring for SOD1 mice was done using instructions from Jackson laboratory. […] Animals were scored by lifting them gently by the base of their tails and observing them for tremors, stiffness and their ability to extend their limbs. […]
# [2] = system: rat model of cerebral ischemia
# Protocol: Male Sprague Dawley rats (weight 230-270 g, Envigo, Netherlands) were used for the experiments which were conducted according to the 3R principles of EU directive 2010/63/EU on the care and use of experimental animals, local laws and regulations, and were approved by the national Animal Experiment Board of Finland All experiments were performed in a blinded manner and the rats were assigned to different treatment groups randomly. Rats were anesthesized with chloral hydrate (0.4 g/kg, i.p). […] Briefly, the bilateral CCAs were identified and isolated through a ventral midline cervical incision. Rats were placed in stereotaxic apparatus and a craniotomy was made in the right hemisphere. The right (MCA) was ligated with a 10-0 suture and bilateral common carotids (CCA) were ligated with non-traumatic arterial clamps for 60 minutes. After sixty minutes of ischemia, the suture around the MCA and arterial clips on CCAs were removed to introduce a reperfusional injury. After recovery from anesthesia, the rats were returned to their home cage. Body temperatures during and after surgery were maintained at 37° C.
# To test the neuroprotective effect of subcutaneous C-CDNF, 50 μg of C-CDNF was given 30-50 min before dMCA occlusion and immediately after reperfusion in volume of 100 μl s.c. Phosphate-buffered saline (PBS) was used as vehicle control. The rats were euthanized 2 days after dMCAo to measure the infarction volume by 2% 2,3,5-triphenyltetrazolium chloride (TTC; Sigma Aldrich, St. Louis, MO) staining. Rats were decapitated and the brains were removed and sliced into 2.0-mm-thick sections using an acrylic rat brain block. The brain slices were incubated in a 2% TTC solution (Sigma, St. Louis, MO, USA) for 15 min at room temperature and then transferred into a 4% paraformaldehyde solution for fixation. The area of infarction in each slice was measured with a digital scanner and ImageJ software. The volume of infarction in each animal was obtained from the product of average slice thickness (2 mm) and sum of infarction areas in rostral brain slices examined. […]
# [3] = system: ER stressed SCG neurons; assay: Survival of tunicamycin ER-stressed SCG neurons microinjected with recombinant protein; format: cell-based, mouse; settings: recombinant protein microinjected into the cytoplasm; tunicamycin 2 μM; counted after 3 days
# Protocol: Non-neuronal cells were removed by extensive preplating. Almost pure neurons were cultured in polyornithine/laminin (Sigma)-coated 35-mm plastic dishes in the small-size standard microislands in the Neurobasal medium and B27 supplement (Invitrogen/Gibco) in the presence of 30 ng/ml mouse nerve growth factor (NGF) (Promega) for 5-6 days. NGF was deprived by extensive washing and addition of the function-blocking anti-NGF antibodies (Roche). The neurons were pressure-microinjected with special neuronal microinjection equipment (Hellman et al., 2011; Hamner et al., 2001; Lindholm et al., 2002; Sun et al., 2001; Yu et al., 2003)(Sun et al., 2001; Sun et al., 2003). For the survival assay, all neurons on the microislands were counted in the beginning (initial number) and the end (three days) of the experiment and expressed as % of initial.
# Microinjection of the sympathetic neurons was performed as described earlier (Yu, L. Y., Jokitalo, E., Sun, Y. F., Mehlen, P., Lindholm, D., Saarma, M., and Arumäe, U. (2003) J. Cell Biol. 163, 987-997). […] Next day tunicamycin (2 μM) was added, and after 3 days the living fluorescent neurons were counted. Living fluorescent (EGFP-expressing or Dextran Texas Red-containing) neurons were “blindly” counted three days later and expressed as percent of initial living fluorescent neurons counted 2-3 hours after microinjection. […]
# [4] = system: SOD1-G93A mice; assay: SOD1-G93A mouse ALS model, single intracerebroventricular injection; format: in vivo; settings: females, vs PBS
# Text: as §1, with “2001). These mice subsequently show disability of gait, eating and drinking and die within some weeks, usually at 14-16 week of age.” for “2001).”
# Mice were then evaluated for signs of disease and body weight changes twice a week. […]
# as §2
molecule,measurement,setting,value
B1,rotarod performance (motor coordination),[1]; significant week 13 until week 19,improves motor coordination
same,relative changes in body weight,[1]; weeks 18 and 19,Significant differences between treatments in body weight
same,infarction volume,"[2]; 50 μg s.c. before dMCA occlusion and after reperfusion, rostral part of cerebral cortex, 2 days after dMCAo",decreases the infarction volume
same,"lesion size, smaller than in vehicle treated rats","[2]; 50 μg s.c. before occlusion and after reperfusion, vs PBS",about 50%
same,blood pressure and heart rate,"[2]; rat, in vivo",does not affect blood pressure and heart rate
same,"living fluorescent neurons, percentage of initial neurons",[3],rescue ER stressed SCG neurons
same,clinical score,[4]; single i.c.v. 3.75 μg at 13 weeks of age,statistically significantly better clinical scores
same,rotarod latency to fall,"[4]; single i.c.v. 3.75 μg, 4-40 rpm, cut-off 4 min",improves the motor behavior
